Experimental data as given in patent publication US20150098945A1 (Daiichi Sankyo, published 2015).

Columns and labels:
[1] = target: T1, rat ROBO4 (pCI-raROBO4-transfected HEK293 cells) (rat, UniProt Q80W87 38-949 at identity 0.93)); test: flow cytometry, HEK293 cells transfected with pCI-raROBO4, anti-mouse IgG FITC; control histogram IgG (Mouse IgG2a)
T1 chain: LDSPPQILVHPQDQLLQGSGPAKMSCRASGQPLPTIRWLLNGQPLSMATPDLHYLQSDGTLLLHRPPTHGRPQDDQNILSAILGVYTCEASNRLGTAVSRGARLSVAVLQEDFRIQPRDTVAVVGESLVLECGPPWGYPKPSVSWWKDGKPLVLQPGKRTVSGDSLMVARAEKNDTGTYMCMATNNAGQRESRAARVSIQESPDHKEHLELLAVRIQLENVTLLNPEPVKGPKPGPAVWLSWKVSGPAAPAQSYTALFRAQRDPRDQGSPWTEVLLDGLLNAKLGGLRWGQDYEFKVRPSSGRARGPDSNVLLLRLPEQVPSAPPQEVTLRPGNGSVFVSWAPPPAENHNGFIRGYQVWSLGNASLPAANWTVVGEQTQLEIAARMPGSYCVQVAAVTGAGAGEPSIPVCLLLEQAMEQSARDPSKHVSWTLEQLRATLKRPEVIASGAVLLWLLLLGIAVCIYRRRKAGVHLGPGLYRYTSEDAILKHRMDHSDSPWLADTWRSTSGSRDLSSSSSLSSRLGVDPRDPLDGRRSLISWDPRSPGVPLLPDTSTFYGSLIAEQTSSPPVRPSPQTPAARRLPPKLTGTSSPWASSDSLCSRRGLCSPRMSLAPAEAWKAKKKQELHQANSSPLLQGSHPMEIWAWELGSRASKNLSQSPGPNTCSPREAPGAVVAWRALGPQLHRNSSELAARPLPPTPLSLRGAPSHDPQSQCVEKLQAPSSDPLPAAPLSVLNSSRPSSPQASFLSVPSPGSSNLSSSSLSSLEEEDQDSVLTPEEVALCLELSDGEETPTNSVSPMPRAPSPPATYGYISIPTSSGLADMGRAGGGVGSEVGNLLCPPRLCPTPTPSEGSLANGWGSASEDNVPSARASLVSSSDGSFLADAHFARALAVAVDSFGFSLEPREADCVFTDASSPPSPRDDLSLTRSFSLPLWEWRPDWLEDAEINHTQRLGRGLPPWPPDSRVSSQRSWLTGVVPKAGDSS
Protocol: (§1) HEK293 cells were inoculated at a concentration of 1.5×10⁶ cells/dish to a 60-mm dish (manufactured by Corning Inc.) and cultured overnight in a DMEM medium containing 10% FBS at 37° C. under 5% CO₂ conditions. On the next day, the HEK293 cells were transfected with pCI-hROBO4, pCI-mROBO4, pCI-raROBO4, pCI-FLAG-cynoROBO4-1, pCI-FLAG-cynoROBO4-2, pCI-hROBO1, pCI-hROBO2, or pCI-hROBO3 using FuGENE6 Transfection Reagent and further cultured overnight at 37° C. under 5% CO₂ conditions. On the next day, the expression vector-transfected cells were treated with TrypLE Express (manufactured by Life Technologies Corp.), washed with PBS containing 5% FBS, and then suspended in PBS containing 5% FBS. The obtained cell suspension was used in flow cytometry analysis.
(§2) Each cell suspension prepared in 4)-3-1 was centrifuged, and the supernatant was removed. Then, MAb1 or a negative control Mouse IgG2a was added at a concentration of 10 μg/mL to 2×10⁵ expression vector-transfected cells, and the resulting suspension was left standing at 4° C. for 1 hour. […] Data was analyzed using Flowjo. The histogram of FITC fluorescence intensity was prepared. The antibody was determined to bind in a cross-species manner when the histogram of MAb1 was shifted to a stronger fluorescence intensity region compared with the histogram of the negative control Mouse IgG2a.

[2] = target: T2, N-terminal FLAG-tagged cynomolgus monkey ROBO4, cynoROBO4-1 (pCI-FLAG-cynoROBO4-1) (cynomolgus monkey, UniProt Q8WZ75 28-1007 (human entry)); test: flow cytometry, HEK293 cells transfected with pCI-FLAG-cynoROBO4-1, antibody at 10 µg/mL, anti-mouse IgG FITC; control histogram IgG (Mouse IgG2a)
T2 chain: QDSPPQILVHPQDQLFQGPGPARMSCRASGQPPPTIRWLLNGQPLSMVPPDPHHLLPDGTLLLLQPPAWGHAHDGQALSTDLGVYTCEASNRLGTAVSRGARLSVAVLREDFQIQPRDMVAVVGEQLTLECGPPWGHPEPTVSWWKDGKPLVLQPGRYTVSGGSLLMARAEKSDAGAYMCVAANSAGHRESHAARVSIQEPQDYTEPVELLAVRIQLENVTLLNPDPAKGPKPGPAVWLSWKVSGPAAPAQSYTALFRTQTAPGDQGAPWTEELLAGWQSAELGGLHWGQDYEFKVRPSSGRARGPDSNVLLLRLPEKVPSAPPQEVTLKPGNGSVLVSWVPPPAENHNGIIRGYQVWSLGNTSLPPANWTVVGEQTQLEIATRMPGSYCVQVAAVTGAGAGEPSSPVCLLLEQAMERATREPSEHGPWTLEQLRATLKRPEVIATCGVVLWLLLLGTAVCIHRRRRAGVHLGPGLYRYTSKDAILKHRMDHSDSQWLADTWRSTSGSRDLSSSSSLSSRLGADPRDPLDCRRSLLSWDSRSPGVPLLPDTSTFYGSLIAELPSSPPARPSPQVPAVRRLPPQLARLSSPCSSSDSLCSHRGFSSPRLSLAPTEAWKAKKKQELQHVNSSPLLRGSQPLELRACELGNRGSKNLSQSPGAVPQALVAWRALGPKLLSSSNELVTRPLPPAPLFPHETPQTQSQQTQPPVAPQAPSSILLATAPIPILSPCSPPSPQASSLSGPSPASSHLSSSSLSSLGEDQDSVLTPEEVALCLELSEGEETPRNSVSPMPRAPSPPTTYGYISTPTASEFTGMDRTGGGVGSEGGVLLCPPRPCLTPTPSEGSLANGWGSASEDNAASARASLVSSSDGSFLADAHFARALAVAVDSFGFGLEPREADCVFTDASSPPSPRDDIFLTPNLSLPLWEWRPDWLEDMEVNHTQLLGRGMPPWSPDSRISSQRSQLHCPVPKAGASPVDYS
Protocol: as §1, §2

binding result [1]: no binding (tested: 10 µg/mL)
binding result [2]: binds
B1: anti-ROBO4 mouse monoclonal antibody MAb1 (antibody, mouse IgG1, V domains shown)
VH: EVQLVESGGGLVKPGGSLKLSCAASGFTFSTYAMSWVRQTPEKRLEWVATISNGGTYTYYPDSVKGRFTISRDNAENTLYLQMSSLRSEDTAMYFCARLIYYDYLDYWGHGTTLTVSS
VL: DAVMTQTPLSLPVSLGDQASISCRSSQSLENSNGNTYLNWYFQKPGQSPQLLIYRVSNRFSGVLDRFSGSGSGTDFTLKISRVEAEDFGVYFCLQVTHVPWTFGGGTKLEIKR
notes: Mouse IgG1 (gamma1), kappa light chain, purified from hybridoma supernatant; also called parent antibody MAb1
